Assay results reported in patent publication US20260263521A1, “ANTI-CD200R1 ANTIBODY AND USE THEREOF” (AIMED BIO INC., priority 2023, published 2026).
Changes are numbered by the printed parent chain.

B1: P001009: phage display anti-CD200R1 clone; VH SEQ ID NO: 79, VL SEQ ID NO: 94 (antibody, V domains shown)
VH: EVQLLESGGGLVQPGGSLRLSCAASGFTFSSYDMSWVRQAPGKGLEWVSWISHGGGSIYYADSVKGRFTISRDNSKNTLYLQMNSLRAEDTAVYYCARDAPAYSAPLFDYWGQGTLVTVSS
VL: QSVLTQPPSASGTPGQRVTISCSGSSSNIGNNAVNWYQQLPGTAPKLLIYYDSNRPSGVPDRFSGSKSGTSASLAISGLRSEDEADYYCAAWDDSLSGYVFGGGTKLTVL
B2: P001009v1: P001009 variant, LC S52 and LC S94 substituted with K and R; VH SEQ ID NO: 79 (antibody, V domains shown)
VH: B1 VH
VL: B1 VL with S53K, S95R

What was measured:
mouse CD200R1 protein = target: T1, mouse CD200R1 protein (Mus musculus, UniProt Q9ES57); assay: ELISA binding to mouse CD200R1; details: concentrations up to 300 nM
T1 construct: purchased R&D systems 2554-CD
T1 sequence (Q9ES57 26-326): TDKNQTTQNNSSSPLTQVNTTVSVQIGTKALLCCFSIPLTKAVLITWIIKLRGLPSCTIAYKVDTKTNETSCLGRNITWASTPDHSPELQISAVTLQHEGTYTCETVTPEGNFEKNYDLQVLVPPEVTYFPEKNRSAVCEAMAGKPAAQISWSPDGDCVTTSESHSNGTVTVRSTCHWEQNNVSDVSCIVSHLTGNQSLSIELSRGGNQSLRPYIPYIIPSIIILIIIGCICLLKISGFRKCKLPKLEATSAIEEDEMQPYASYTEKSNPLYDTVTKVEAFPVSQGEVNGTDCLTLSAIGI
Experimental: (§1) 96-well plates were coated with human CD200R1 (R&D systems, 3414-CD) and mouse CD200R1 protein (R&D systems, 2554-CD) at a concentration of 2 μg/mL at 4° C. for 16 hours and then were blocked with 3% skim milk. The result was treated with the antibodies at concentrations of 300 nM, 60 nM, 12 nM, 2.4 nM, 0.48 nM, 0.096 nM, and 0.0192 nM, and reacted at room temperature for 2 hours.
(§2) The result was washed with PBST and distilled water, the samples were bound with a goat-derived HRP-conjugated anti-human antibody (Invitrogen, 31482, Goat anti-Human IgG F(ab′)2 Secondary Antibody, HRP) for 1 hour at room temperature, and then washed again with PBST and distilled water. Color was developed with a TMB substrate solution (Thermo Scientific, 34029, 1-Step™ TMB-ELISA Ultra Substrate Solution). The color reaction was stopped with stop solution (Invitrogen, SS04, ELISA Stop Solution). The absorbance was measured at an optical density of 450 nm.

human CD200R1 = target: T2, human CD200R1 (Homo sapiens, UniProt Q8TD46); assay: ELISA binding to human CD200R1; details: ELISA, Example 14
T2 sequence (Q8TD46 25-348): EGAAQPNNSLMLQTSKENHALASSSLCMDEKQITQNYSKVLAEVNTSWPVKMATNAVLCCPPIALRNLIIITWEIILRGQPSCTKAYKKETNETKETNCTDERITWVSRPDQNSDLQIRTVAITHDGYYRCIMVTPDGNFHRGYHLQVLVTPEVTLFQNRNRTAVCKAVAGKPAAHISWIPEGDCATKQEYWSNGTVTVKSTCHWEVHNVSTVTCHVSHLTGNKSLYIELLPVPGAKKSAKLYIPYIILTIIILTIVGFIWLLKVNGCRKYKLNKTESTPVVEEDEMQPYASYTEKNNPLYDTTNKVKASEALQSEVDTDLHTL
Experimental: as §1, §2

monkey CD200R1 = assay: ELISA binding to monkey CD200R1; details: Example 14
Text: Therefore, the LC D51 and LC D92 sequences were not substituted during the optimization process. However, since LC N30 and LC N31 can play an important role in the specific binding of antibodies as paratopes, the sequences were substituted and optimized. Through rational design, LC S52 and LC S94 were substituted with K and R, respectively, to derive P001009v1, and LC S52 and LC D93 were substituted with K and R, respectively, to derive P001009v2. Further, P001009v3, in which LC N30 was substituted with S, and P001009v4, in which LC N31 was substituted with K, were derived and produced, and the binding ability to human, mouse, and monkey CD200R1 was analyzed by ELISA (FIG. 15). […] Both […] and variants thereof had very weak binding ability to mouse CD200R1 at concentrations up to 300 nM.

[1] = target: T3, CD200R1 on U937-CD200R overexpressing cells (Homo sapiens, UniProt Q8TD46); assay: Cell binding assay (flow cytometry), U937-CD200R1 cells; format: cell-based; details: serial dilution from 100 nM
T3 construct: host or cells: U937 (CRL-1593.2)
T3 sequence (Q8TD46 25-348): T2 sequence (Q8TD46 25-348)
Experimental: Binding ability was determined in HH, an endogenous T cell line with high CD200R1 expression, and two additional overexpressing cell lines: U937-CD200R overexpressing cells, generated by intranuclear injection of human CD200R1 CDNA into the monocytic cell line U937 (CRL-1593.2) (Source: UMC Utrecht, the Netherlands) and Jurkat-CD200R overexpressing cells, were also cells engineered using a similar method.
All cell lines were maintained in RPMI 1640 medium supplemented with 10% heat-inactivated FBS and 1% penicillin/streptomycin (P/S) and cell binding was determined in the same manner as in Example 12. Two additional wells were treated with 10 μl of mouse IgG1K (BD, #555751) and 5 μl of commercial CD200R1 antibody (Biolegend, #329308) to determine CD200R1 expression on the cell line surface for cell quality control.
Specific binding ability was determined using P001009 WT and antibody-optimized mutants, P001009v1, P001009v2, P001009v3, and P001009v4. The antibodies were serially diluted 10-fold from a maximum concentration of 100 nM to 10 nM, 1 nM, […], and were added to the pre-seeded cells. […] Using GraphPad Prism software, the EC50 was determined using a nonlinear graph model of log (agonist) vs. response-variable slope, as shown in Table 32.

[2] = system: Th1/Th2 cytokines in nasal polyp patient specimens; assay: Ex vivo cytokine inhibition in nasal polyp patient specimens (CBA); format: cell-based, human; details: antibody drugs 100 nM; three DUPIXENT-resistant samples of 10; Th2 cytokines IL-5, IL-4
Experimental: The specimens were finely chopped and minced, and then additionally processed twice using the m_lung_02 protocol on a gentleMACS (Miltenyi Biotec) to obtain tissue fragments. After centrifugation at 1500 rpm for 3 minutes to ensure that all tissues formed a pellet, RPMI media+10% FBS was aliquoted in the pellet at a 1:3 ratio. The pellet was thoroughly mixed with the medium and dispensed into a 96-well u-bottom plate, 100 μl per well, in triplicate for each drug. To establish the screening assay, results were obtained first using dexamethasone (a steroid-based positive control drug), followed by treatment with the anti-CD200R1 antibody (P001009v1) and other drugs used for the corresponding disease. All antibody-based drugs were treated at 100 nM, while steroid drugs such as dexamethasone were treated at 20 μM.
After drug treatment, the cells were incubated at 37° C. for 1 hour. To increase overall cytokine levels, 4 μl of a 10-fold diluted cell stimulation cocktail 500× (Invitrogen #00-4970-03) was added on each well and mixed. After reaction for 24 hours at 37° C., the supernatant was collected by centrifugation. Using the human Th1/Th2 cytokine cytometric bead array (CBA) kit (BD, #550749), cytokine levels in the supernatant were measured and the degree of drug responsiveness of each sample was determined.

Molecule	binding ability to mouse CD200R1 (mouse CD200R1 protein)	binding ability to human CD200R1 compared to parent (human CD200R1)	binding ability to monkey CD200R1 compared to parent (monkey CD200R1)	binding ability to U937-CD200R1 [1]	cytokine suppression in nasal polyp patient samples [2]
B1	very weak	–	–	–	–
B2	–	improved	improved	exhibited binding ability	superior cytokine suppression
